Assay results from FireProtDB (doi:10.1021/bi00093a001).

Settings: Hordeum vulgare, MES 450 mM, reversible: yes, whole UniProt chain shown; for Tm / unfolding enthalpy (calorimetric) / unfolding enthalpy (van 't Hoff): Thermal, DSC
[1] = pH 6.3, 25 °C, GdnHCl, Fluorescence

B1: Subtilisin-chymotrypsin inhibitor-2A wild type, P01053 (protein)
chain: MSSVEKKPEGVNTGAGDRHNLKTEWPELVGKSVEEAKKVILQDKPEAQIIVLPVGTIVTMEYRIDRVRLFVDKLDNIAQVPRVG
Tm (pH 3): 64 °C | unfolding enthalpy (calorimetric) (pH 3): 61 kcal/mol | unfolding enthalpy (van 't Hoff) (pH 3): 61.2 kcal/mol | Tm (pH 3.5): 73.8 °C | unfolding enthalpy (calorimetric) (pH 3.5): 67 kcal/mol | unfolding enthalpy (van 't Hoff) (pH 3.5): 66.9 kcal/mol | denaturant m value [1]: 1.89 kcal/mol/M | denaturant midpoint (higher = more stable) [1]: 3.99 M | unfolding free energy [1]: 7.53 kcal/mol
